Experiment [1] deals with fibrin (polymerized from purified human fibrinogen with thrombin) (human) (UniProt P02671). The experiment in a line: SPR, sdFv flowed over thin fibrin layer, Langmuir 1:1 fit.
A further experiment has as its target T1, BSA (UniProt P02769 25-607).
T1 construct: Control surface in SPR; also called BSA surface
The experiment in a line: SPR, scFv/sdFv flowed over a BSA surface. Background: Surface plasmon resonance follows binding to a sensor surface in real time, without labels.

T1 sequence (P02769 25-607 limits assumed): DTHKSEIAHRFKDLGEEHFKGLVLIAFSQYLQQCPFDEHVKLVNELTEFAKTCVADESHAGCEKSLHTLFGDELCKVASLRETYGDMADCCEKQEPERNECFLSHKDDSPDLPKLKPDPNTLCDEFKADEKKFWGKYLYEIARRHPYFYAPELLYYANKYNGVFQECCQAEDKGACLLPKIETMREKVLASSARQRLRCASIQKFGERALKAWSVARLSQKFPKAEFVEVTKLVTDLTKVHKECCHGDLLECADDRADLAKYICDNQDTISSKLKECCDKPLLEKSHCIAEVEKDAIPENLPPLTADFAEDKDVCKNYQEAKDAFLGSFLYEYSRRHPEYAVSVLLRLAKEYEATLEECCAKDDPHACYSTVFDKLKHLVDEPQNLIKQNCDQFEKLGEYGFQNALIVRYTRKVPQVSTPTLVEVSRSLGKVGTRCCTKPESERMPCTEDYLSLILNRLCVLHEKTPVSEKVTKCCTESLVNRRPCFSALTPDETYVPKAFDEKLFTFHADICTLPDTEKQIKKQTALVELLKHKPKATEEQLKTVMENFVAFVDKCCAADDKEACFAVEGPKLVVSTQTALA

B1: H6 fibrin-specific single domain variable fragment antibody (sdFv) (VHH)
VHH: QVQLLESGGGLVQPGGSLRLSCAASGDRFTHNDMGWVRQAPGKGLEWVSTIPTTDGSTYYADSVKGRFTISRDNSKSTLYLQMNSLRAEDTAVYYCATGYMWKAPAYVKYWGQGTLVTVSS
notes: Human-derived single domain antibody with only the VH of human IgG, from a phagemid library; Produced as soluble sdFv in E. coli HB2151 and purified on protein A; also called clone H6; nanobody
For orientation: Kd means the constant that tells how readily two partners part at equilibrium. Consider B1, for which, in experiment [1], the dissociation constant (Kd) was 199 nM. Also, the binding result with BSA was “no binding (tested: not printed)”.

For the origin of these results see patent publication US20160271292A1 (GEORGIA TECH RESEARCH, published 2016).
